Assay results from publication PMC9873692 (2023).

B1: P2 domain of the histidine kinase CheA (domain or fragment)
chain: GFKTFYIKVILKEGTQLKSARIYLVFHKLEELKCEVVRTIPSVEEIEEEKFENEVELFVISPVDLEKLSEALSSIADIERVIIKEV
modifications: biotin (in vivo biotinylation, AviTag)
B2: CheY protein from Thermotoga maritima (natural protein)
chain: MGKRVLIVDDAAFMRMMLKDIITKAGYEVAGEATNGREAVEKYKELKPDIVTMDITMPEMNGIDAIKEIMKIDPNAKIIVCSAMGQQAMVIEAIKAGAKDFIVKPFQPSRVVEALNKVSK

Assays:
Assay in all cases: ITC
Cheytin 1 = molecular target: Cheytin 1
Cheytin 4 = molecular target: Cheytin 4
Cheytin 2 = molecular target: Cheytin 2
Cheytin 3 = molecular target: Cheytin 3
[1] = molecular target: B1

Binder | Kd (Cheytin 1) [nM] | Kd (Cheytin 4) [nM] | Kd (Cheytin 2) [nM] | Kd (Cheytin 3) [nM] | Kd [1] [nM]
B1 | 220 | 490 | 110 | 660 | 
B2 |  |  |  |  | 150
